Test results from patent publication US20250382588A1, “CHIMERIC AAV AND USES THEREOF” (priority 2023, published 2025).

Columns and labels:
[1] = test system: MSNs in nucleus accumbens; experiment: Retrograde labeling of accumbal MSNs after delivery into ventral pallidum or lateral hypothalamus; assay type: in vivo, mice
[2] = test system: striatal D1 MSNs (striatonigral projection neurons); experiment: Retrograde labeling of striatonigral projection neurons after AAV injection into the SNr; assay type: in vivo, mice; details: for Mean: Table 2, AAVs with capsid and promoter, labeled cells per striatal hemisphere after nigral delivery; for retrograde labeling/infectivity of striatal projection neurons (D1 MSNs), in words: injection into the SNr; for labeled striatonigral projection neurons (FIG. 2C): mean±SEM, n=3 mice, viruses injected into the SNr; for times more EYFP positive/labeled MSNs compared to rAAV2-retro: nigral delivery, hSyn-EYFP
Protocol: To improve efficiency, multiple rounds of mutations of AAV capsids were performed on a series of different serotypes. Mutations were introduced at three sites in the AAV8 capsid protein to make AAV8R, including N385D, insertion of […] (SEQ ID NO: 31) at position 588, and TS711-712IN. Two additional mutations of V183E and N411S were incorporated into the AAV8R12 capsid protein (FIG. 1A). The labeling pattern of the AAV8R12 capsid and G88 promoter combination was determined.
First, the polypeptide fragment RGNLADODYTKTARQAATAD (SEQ ID NO.: 31) was inserted at the N587-R588 position; two other point mutations of the AAV2 Cap protein were made to develop rAAV2-retro. Similar mutations were then placed at equivalent positions for four other AAV serotypes (FIGS. 1A-IC and 25, TABLE 1), AAV1/5/6/8 (FIG. 1A). […] When administered into the SNr, 4.86±0.22 times EYFP positive MSNs in mice infected by AAV8R-hSyn-EYFP were observed as compared to those infected by rAAV2-retro-hSyn-EYFP (FIG. 2A-2C).
Baseline infectivity of rAAV2-retro was approximately 0.2±0.03×10^4 cells per striatal hemisphere (using a hSyn promoter) (TABLE 2). […] Compared to the current standard retrograde AAV, rAAV2-retro, AAV8R12 labeled 7.72±0.78-times more MSNs after nigral delivery (FIG. 2B-2C, TABLE 1). […] The AAV8R12 was generated using the AAV8R plasmid as a template.
Mice were anesthetized with sodium pentobarbital (Nembutal; 80 mg/kg, i.p.), and then placed into a stereotaxic device (KOPF). Eye cream was applied on both corneas to avoid dehydration. The skull above the targeted areas was thinned with a dental drill and carefully removed. Injections were conducted with a 10 μL syringe connected to a 33-Gauge needle (Neuros; Hamilton), using a microsyringe pump (Legato 130, KD Scientific). A total volume of 200 nL virus was injected into the SNr at a speed of 20 nL/min. The coordinates for the SNr were 3.4 mm posterior, 1.3 mm lateral, 4.8 mm ventral to the bregma.
HEK293T cells (ATCC) were co-transfected by calcium phosphate with an AAV vector plasmid, an AAV Rep-Cap plasmid (rAAV2-retro, AAV1R, AAV5R, AAV6R, AAV8R, and AAV8R1-14), and the pAdDeltaF6 helper plasmid (Addgene, 112867) harboring the adenoviral genes required for the AAV life cycle. HEK293T cells grown in 15 cm cell culture dishes were co-transfected with the mixture of three plasmids (1:1:1) at 80% confluency. 48-72 hours post-transfection, cells were collected and resuspended in a buffer containing 150 mM NaCl and 100 mM Tris-HCl (pH 8.0). Cells were lysed by repeated freeze-thaw cycles in liquid nitrogen and a 37° C. water bath. AAV particles were purified and concentrated using Millipore Amicon 100K columns (Merck Millipore, UFC910008). Encapsidated viral DNA was quantitated by qPCR (Thermo Fisher) with primers recognizing the viral WPRE and/or ITR sequences following denaturation of the AAV particles using Proteinase K. Titers were calculated as genome copies per milliliter.
Images were acquired using a confocal microscope (Carl Zeiss, LSM880) and an Axiolmager.Z1 microscope with apotome (Carl Zeiss). Brain structures were identified microscopically and in digital photos using a mouse brain atlas. To analyze the number of EYFP+ cells in the striatum, slices from rostral to caudal striatum were used. Every sixth section was analyzed, and numbers of EYFP+ cells were multiplied by six to acquire the approximate total number and mean number of cells per animal. Images were processed using ImageJ (NIH, USA), and final quantifications were independently performed manually by two blinded experimenters.

Row | Molecule | labeling of MSNs in nucleus accumbens [1] | Labeling Efficiency in Striatonigral Pathway ([2]; AAV8R capsid mutants, numbers of labeled neurons per animal) | Mean [2] | retrograde labeling/infectivity of striatal projection neurons (D1 MSNs), in words [2] | labeled striatonigral projection neurons (FIG. 2C) [2] | times more EYFP positive/labeled MSNs compared to rAAV2-retro [2] [times]
1 | AAV8R12: AAV8R capsid mutant V183E + N411S, SEQ ID NO: 13 (protein) MAADGYLPDWLEDNLSEGIREWWALKPGAPKPKANQQKQDDGRGLVLPGYKYLGPFNGLDKGEPVNAADAAALEHDKAYDQQLQAGDNPYLRYNHADAEFQERLQEDTSFGGNLGRAVFQAKKRVLEPLGLVEEGAKTAPGKKRPVEPSPQRSPDSSTGIGKKGQQPARKRLNFGQTGDSESEPDPQPLGEPPAAPSGVGPNTMAAGGGAPMADNNEGADGVGSSSGNWHCDSTWLGDRVITTSTRTWALPTYNNHLYKQISNGTSGGATNDNTYFGYSTPWGYFDFNRFHCHFSPRDWQRLINNNWGFRPKRLSFKLFNIQVKEVTQNEGTKTIANNLTSTIQVFTDSEYQLPYVLGSAHQGCLPPFPADVFMIPQYGYLTLNDGSQAVGRSSFYCLEYFPSQMLRTGNSFQFTYTFEDVPFHSSYAHSQSLDRLMNPLIDQYLYYLSRTQTTGGTANTQTLGFSQGGPNTMANQAKNWLPGPCYRQQRVSTTTGQNNNSNFAWTAGTKYHLNGRNSLANPGIAMATHKDDEERFFPSNGILIFGKQNAARDNADYSDVMLTSEEEIKTTNPVATEEYGIVADNLQRGNLADQDYTKTARQAATADVNSQGALPGMVWQNRDVYLQGPIWAKIPHTDGNFHPSPLMGGFGLKHPPPQILIKNTPVPADPPTTFNQSKLNSFITQYSTGQVSVEIEWELQKENSKRWNPEIQYTSNYYKSINVDFAVNTEGVYSEPRPIGTRYLTRN | robust labeling | +++ (10 k-25 k) | 16026 | mostly improved efficiency | 16026±1654 | 7.72±0.78
2 | AAV8R: AAV8 capsid with N385D, insertion of SEQ ID NO: 31 at position 588 and TS to IN mutation; SEQ ID NO: 1 (protein) MAADGYLPDWLEDNLSEGIREWWALKPGAPKPKANQQKQDDGRGLVLPGYKYLGPFNGLDKGEPVNAADAAALEHDKAYDQQLQAGDNPYLRYNHADAEFQERLQEDTSFGGNLGRAVFQAKKRVLEPLGLVEEGAKTAPGKKRPVEPSPQRSPDSSTGIGKKGQQPARKRLNFGQTGDSESVPDPQPLGEPPAAPSGVGPNTMAAGGGAPMADNNEGADGVGSSSGNWHCDSTWLGDRVITTSTRTWALPTYNNHLYKQISNGTSGGATNDNTYFGYSTPWGYFDFNRFHCHFSPRDWQRLINNNWGFRPKRLSFKLFNIQVKEVTQNEGTKTIANNLTSTIQVFTDSEYQLPYVLGSAHQGCLPPFPADVFMIPQYGYLTLNDGSQAVGRSSFYCLEYFPSQMLRTGNNFQFTYTFEDVPFHSSYAHSQSLDRLMNPLIDQYLYYLSRTQTTGGTANTQTLGFSQGGPNTMANQAKNWLPGPCYRQQRVSTTTGQNNNSNFAWTAGTKYHLNGRNSLANPGIAMATHKDDEERFFPSNGILIFGKQNAARDNADYSDVMLTSEEEIKTTNPVATEEYGIVADNLQRGNLADQDYTKTARQAATADVNSQGALPGMVWQNRDVYLQGPIWAKIPHTDGNFHPSPLMGGFGLKHPPPQILIKNTPVPADPPTTFNQSKLNSFITQYSTGQVSVEIEWELQKENSKRWNPEIQYTSNYYKSINVDFAVNTEGVYSEPRPIGTRYLTRNL | robust labeling |  | 10092 | acquired improved retrograde infectivity | 10092±463.9 | 4.86±0.22
